The text below walks through data of paper PMC7299281.

For this experiment, the target named is stabilized prefusion SARS-CoV-2 S ectodomain (SARS-CoV-2) (UniProt P0DTC2). Briefly: negative-stain electron microscopy.

On to COVA1-12 Fab, for which the stoichiometry N (Fab per trimer) is 1.
Still for that read-out and setting: the figure for COVA2-04 Fab is 1.
On the same count and under the same terms, the figure for COVA2-07 Fab is 1.
Turning to COVA2-15 Fab, the stoichiometry N amounted to 3 per trimer.
For COVA2-39 Fab, the stoichiometry N (Fab per trimer) was determined as 1.
